The record followed here is US20220387487A1, “COMPOSITIONS AND METHODS FOR TREATMENT OF CANCER” (Aleta Biotherapeutics Inc., priority 2019, published 2022).

Changes are numbered by the printed parent chain. Names may count otherwise.

B1: W264S: CD19 variant (protein)
chain: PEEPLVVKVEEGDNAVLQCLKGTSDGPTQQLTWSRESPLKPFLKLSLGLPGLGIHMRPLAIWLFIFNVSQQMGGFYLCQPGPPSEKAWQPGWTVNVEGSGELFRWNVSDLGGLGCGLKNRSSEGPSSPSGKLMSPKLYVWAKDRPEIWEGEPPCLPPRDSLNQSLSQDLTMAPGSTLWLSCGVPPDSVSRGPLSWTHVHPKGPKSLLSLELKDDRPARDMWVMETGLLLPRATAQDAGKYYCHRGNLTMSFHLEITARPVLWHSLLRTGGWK
B2: I255V: CD19 variant (protein)
chain: B1 chain with I255V, S264W
B3: W262R: CD19 variant (protein)
chain: B1 chain with W262R, S264W
B4: L228V: CD19 variant (protein)
chain: B1 chain with L228V, S264W
B5: W262G: CD19 variant (protein)
chain: B1 chain with W262G, S264W
B6: G269I: CD19 variant (protein)
chain: B1 chain with S264W, G269I
B7: Y240W: CD19 variant (protein)
chain: B1 chain with Y240W, S264W
B8: W262A: CD19 variant (protein)
chain: B1 chain with W262A, S264W
B9: A232V: CD19 variant (protein)
chain: B1 chain with A232V, S264W
B10: W264P: CD19 variant (protein)
chain: B1 chain with S264P
B11: R215W: CD19 variant (protein)
chain: B1 chain with R215W, S264W
B12: W264K: CD19 variant (protein)
chain: B1 chain with S264K
B13: W262H: CD19 variant (protein)
chain: B1 chain with W262H, S264W
B14: W262S: CD19 variant (protein)
chain: B1 chain with W262S, S264W
B15: W262E: CD19 variant (protein)
chain: B1 chain with W262E, S264W
B16: W264R: CD19 variant (protein)
chain: B1 chain with S264R
B17: W262P: CD19 variant (protein)
chain: B1 chain with W262P, S264W
B18: M223T: CD19 variant (protein)
chain: B1 chain with M223T, S264W
B19: W264Q: CD19 variant (protein)
chain: B1 chain with S264Q
B20: H243T: CD19 variant (protein)
chain: B1 chain with H243T, S264W
B21: V260K: CD19 variant (protein)
chain: B1 chain with V260K, S264W
B22: L59G: CD19 variant (protein)
chain: B1 chain with L59G, S264W
B23: W264T: CD19 variant (protein)
chain: B1 chain with S264T
B24: V260R: CD19 variant (protein)
chain: B1 chain with V260R, S264W
B25: L59E: CD19 variant (protein)
chain: B1 chain with L59E, S264W
B26: V16F: CD19 variant (protein)
chain: B1 chain with V16F, S264W
B27: W264G: CD19 variant (protein)
chain: B1 chain with S264G
B28: W262Q: CD19 variant (protein)
chain: B1 chain with W262Q, S264W
B29: K212S: CD19 variant (protein)
chain: B1 chain with K212S, S264W
B30: L59S: CD19 variant (protein)
chain: B1 chain with L59S, S264W
B31: G226S: CD19 variant (protein)
chain: B1 chain with G226S, S264W
B32: G226T: CD19 variant (protein)
chain: B1 chain with G226T, S264W

Sequence of FMC63 (as listed by the source): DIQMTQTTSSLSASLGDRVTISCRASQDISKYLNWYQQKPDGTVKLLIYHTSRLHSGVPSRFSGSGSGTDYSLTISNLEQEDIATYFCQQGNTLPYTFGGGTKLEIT
Sequence of FMC63 (as listed by the source): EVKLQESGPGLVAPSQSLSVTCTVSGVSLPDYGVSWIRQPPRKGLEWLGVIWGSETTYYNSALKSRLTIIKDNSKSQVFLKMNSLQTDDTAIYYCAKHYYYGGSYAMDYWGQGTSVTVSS

The subject of the assay is FMC63. In words: CD19 variant binding to anti-CD19 antibody FMC63 (score). As to conditions: Table 1A, CD19 single mutants (positions of SEQ ID NO:2).
With B1, the “FMC63 Binding Score” value is reported as 7.6 ± .5.
In the case of B2, the “FMC63 Binding Score” value is on record as 6.4 ± .4.
To B3 belongs 7.4 ± .3; to B4, 7.4 ± .4.
To B5 belongs 6.4 ± .2; to B6, 6.7 ± .8; to B7, 6.3 ± .3.
Take B8: the “FMC63 Binding Score” value was 6.9 ± .5.
To B9 belongs 6.3 ± .2; to B10, 8.6 ± 1.5; to B11, 7.1 ± 1.1.
Regarding B12, the “FMC63 Binding Score” value came out at 8. ± 1.
As for B13, the “FMC63 Binding Score” value was found to be 6.7 ± 1.
B14: the “FMC63 Binding Score” value is reported as 7. ± .3.
Consider B15, for which the “FMC63 Binding Score” value is 6.9 ± .3.
Regarding B16, the “FMC63 Binding Score” value is 6.9 ± .3.
As for B17, the “FMC63 Binding Score” value is on record as 7.4 ± .7.
To B18 belongs 6.7 ± .4.
To B19 belongs 7.4 ± .8; to B20, 7.1 ± .9; to B21, 7.5 ± .7.
With B22, the “FMC63 Binding Score” value is listed as 6.5 ± .3.
For B23, the “FMC63 Binding Score” value is 7.2 ± .8.
For B24 the value was 6.7 ± .3.
For B25 the value was 6.3 ± .5; for B26, 7. ± 1; for B27, 7.2 ± .3.
For B28 the value was 6.8 ± .6; for B29, 6.8 ± .6; for B30, 6.4 ± .4.
In the case of B31, the “FMC63 Binding Score” value is 6.1 ± .4.
On to B32, for which the “FMC63 Binding Score” value is reported as 7.3 ± .6.
